This is an account of results in patent publication US20260070976A1 (Alector, published 2026).

Where a chain is given by its changes, count along the chain named.

The term Kd denotes the free concentration of one partner at which half of the binding sites on the other are occupied at equilibrium, for simple one-to-one binding.

For test [1], the target named is T1, recombinant human PILRB (human, UniProt Q9UKJ0 20-191). The test is described as follows: SPR, Carterra LSA, steady-state fit. The protocol:
(§1) Binding kinetics of human anti-PILRA-IgG4 antibodies were evaluated by surface plasmon resonance (SPR) using a Carterra LSA instrument (Carterra, Salt Lake City, UT). Antibodies were immobilized in duplicate arrays onto an HC30M sensor chip (Carterra) by amine coupling according to the manufacturer's protocol. After priming the immobilized antibodies with HBS-EP+ (Teknova, Hollister, CA, #8022) running buffer with 0.5 mg/mL BSA (MP Biomedicals LLC, #820451), the immobilized antibodies were tested for their ability to bind to recombinant human PILRA (SEQ ID NO:1) and cynomolgus PILRA (SEQ ID NO:120) and to human PILRB (SEQ ID NO:105) and cynomolgus PILRB (SEQ ID NO:121).
(§2) For binding kinetics analysis, human and cynomolgus PILRA and PILRB analytes were diluted in running buffer to 440 to 470 nM, and diluted 3-fold serially five times, to 1.8 to 1.9 nM, and injected for five minutes over the entire chip using the single channel flow cell to measure association of binding to the immobilized antibodies. Dissociation of the analytes was measured for five minutes, followed by regeneration of the chip with two 30-second injections of 10 mM glycine pH 2.0.
For the human PILRB interactions, the binding was too weak and heterogenous for kinetic constants to be calculated in this assay. Therefore, steady-state affinities were estimated based on the binding level of each analyte concentration at the end of the injections.
For orientation: Surface plasmon resonance follows binding to a sensor surface in real time, without labels.

For test [2], the target named is T2, recombinant human PILRA (human, UniProt Q9UKJ1 20-197). The test is described as follows: SPR, Carterra LSA, antibody amine-coupled, kinetic fit. Here is the method:
as §1, §2

For test [3], the target named is T3, recombinant cynomolgus PILRA (SEQ ID NO:120) (cynomolgus monkey).
T3 construct: also called cyno PILRA
Described as above. Here is the method: as §1, §2

The target of test [4] is T2, recombinant human PILRA. The test can be described thus: SPR, Biacore T200, antibody captured by anti-Fab. Here is the method:
(§3) A subset of these antibodies was further evaluated using the Biacore T200 (Cytiva). Anti-PILRA antibodies were diluted to 10 μg/mL and captured using an anti-Fab (Cytiva, #28958325) surface on a CM4 chip, that was prepared by amine coupling according to the manufacturer's protocol. Human PILRA and cynomolgus PILRB were diluted in running buffer to 130 nM, and diluted 4-fold serially, twice, to 8 nM. Human PILRB was similarly diluted from 260 nM to 16 nM. These analytes were injected and allowed 2 minutes of association, followed by dissociation for 5 minutes.
(§4) Data were analyzed using Biacore evaluation software to generate kinetic constants. The equilibrium dissociation constants (KD) were calculated from the fitted association and dissociation rate constants (k-on and k-off) for each of the anti-PILRA antibodies. These Kn values are indicated with asterisks in Table 8 below.

Test [5] addresses T1, recombinant human PILRB. The test can be described thus: SPR, Biacore T200, antibody captured by anti-Fab. Here is the method: as §3, §4
Test [6] deals with cell surface PILRA on human monocytes (human, UniProt Q9UKJ1 20-303). The test is described as follows: cell-based or functional assay.
Test [7] has as its target T4, human PILRA G78 on HEK293F cells (human, UniProt Q9UKJ1 20-303).
T4 construct: also called hA; G78 OE
The test can be described thus: FACS on HEK293F cells, binding on human PILRA (hA) over human PILRB (hB). The protocol:
Conditioned media samples containing the tested anti-PILRA antibodies were assessed for binding to HEK293F cells overexpressing human PILRA (hA), human PILRB (hB), and cynomolgus PILRA (cA) by FACS. The conditioned media containing the tested antibodies were incubated with the cells for 30 min at 4° C., washed twice, and then detected with goat anti-human IgG secondary antibody (Alexa Fluor 647) at 1:1000 dilution. The cells were analyzed by flow cytometry on FACS Canto II, and for all cell lines, the reported MFI values were calculated for each conditioned media. These antibodies were evaluated for nonspecific binding using a baculovirus particle (BVP) assay (Jain T., Sun T., Durand S., Hall A., Houston N. R., Nett J. H., Sharkey B., Bobrowicz B., Caffry L, Yu Y., et al. Biophysical properties of the clinical-stage antibody landscape. Proc. Natl. Acad. Sci. USA. 2017; 114:944-949. Doi: 10.1073/pnas.1616408114.). The BVP scores are listed in Table 9, and the higher the score the more nonspecific binding that occurred.

T3 sequence (chain, as listed by the source limits assumed): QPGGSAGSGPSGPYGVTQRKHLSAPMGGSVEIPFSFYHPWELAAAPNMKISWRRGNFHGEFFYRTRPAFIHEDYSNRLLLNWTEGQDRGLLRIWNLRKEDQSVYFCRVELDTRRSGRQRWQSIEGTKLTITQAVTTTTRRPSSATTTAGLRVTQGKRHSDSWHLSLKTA
T1 sequence (Q9UKJ0 20-191 limits assumed): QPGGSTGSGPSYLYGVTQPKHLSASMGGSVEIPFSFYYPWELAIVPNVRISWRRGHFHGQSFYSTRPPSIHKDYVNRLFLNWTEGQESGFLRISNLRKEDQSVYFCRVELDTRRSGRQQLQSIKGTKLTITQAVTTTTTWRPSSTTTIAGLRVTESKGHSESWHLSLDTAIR
T2 sequence (Q9UKJ1 20-197 limits assumed): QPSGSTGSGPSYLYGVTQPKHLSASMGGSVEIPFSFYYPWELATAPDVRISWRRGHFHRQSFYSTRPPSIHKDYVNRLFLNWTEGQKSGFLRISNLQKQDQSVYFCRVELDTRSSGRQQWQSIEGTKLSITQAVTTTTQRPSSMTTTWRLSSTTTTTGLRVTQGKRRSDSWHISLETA
Sequence of cell surface PILRA on human monocytes (Q9UKJ1 20-303): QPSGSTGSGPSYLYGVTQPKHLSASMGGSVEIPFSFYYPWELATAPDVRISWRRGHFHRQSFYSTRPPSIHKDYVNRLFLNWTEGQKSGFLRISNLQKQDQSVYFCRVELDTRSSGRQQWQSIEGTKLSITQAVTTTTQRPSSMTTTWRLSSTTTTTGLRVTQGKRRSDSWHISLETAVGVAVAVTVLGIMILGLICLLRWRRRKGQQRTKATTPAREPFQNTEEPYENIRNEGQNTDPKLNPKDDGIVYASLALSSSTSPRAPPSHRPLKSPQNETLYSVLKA
T4 sequence (Q9UKJ1 20-303 R78G): as the sequence (Q9UKJ1 20-303) above, with R59G counted along it

B1: X4 (antibody, human IgG4, V domains shown)
VH: QVQLVQSGAEVKKPGSSVKVSCKASGYNFLNYDVNWVRQAPGQGLEWMGGIIPIFGTANYAQKFQGRVTITADESTSTAYMELSSLRSEDTAVYYCATGVGAGWFDPWGQGTLVTVSS
VL: DIVMTQSPDSLAVSLGERATINCKSSQSVYFSPNNKNYLAWYQQKPGQPPKLLIYWASTRESGVPDRFSGSGSGTDFTLTISSLQAEDVAVYYCQQYFEEPYTFGQGTRLEIK
With B1, the results for the Kd (with recombinant human PILRB [1]; with recombinant human PILRA [2]; in test [3]) were 138 nM, 12 nM and 0.2 nM, respectively.

B2: X23 (antibody, human IgG4, V domains shown)
VH: B1 VH with N31H
VL: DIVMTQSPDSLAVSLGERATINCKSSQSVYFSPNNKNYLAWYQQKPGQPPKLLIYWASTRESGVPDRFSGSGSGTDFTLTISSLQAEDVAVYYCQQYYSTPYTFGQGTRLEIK
Turning to B2, the Kd turned out to be 35 nM with recombinant human PILRB [1], 3.9 nM with recombinant human PILRA [2] and 0.3 nM in test [3].

B3: X30 (antibody, human IgG4, V domains shown)
VH: B1 VH
VL: B1 VL with S32D, P33V, F98Y
Regarding B3, the results for the Kd (with recombinant human PILRB [1]; with recombinant human PILRA [2]; in test [3]) were 43 nM, 3.3 nM and 0.1 nM, respectively.

B4: X33 (antibody, human IgG4, V domains shown)
VH: B1 VH with N31H, G99A
VL: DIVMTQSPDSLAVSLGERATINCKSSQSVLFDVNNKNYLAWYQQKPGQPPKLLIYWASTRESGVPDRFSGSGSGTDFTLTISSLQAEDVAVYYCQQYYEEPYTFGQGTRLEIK
As to B4, the dissociation constant Kd came to 2 nM in the test with recombinant human PILRB [1], 0.6 nM with recombinant human PILRA [2] and 0.1 nM in test [3].

B5: X21 (antibody, human IgG4, V domains shown)
VH: B1 VH with N31H
VL: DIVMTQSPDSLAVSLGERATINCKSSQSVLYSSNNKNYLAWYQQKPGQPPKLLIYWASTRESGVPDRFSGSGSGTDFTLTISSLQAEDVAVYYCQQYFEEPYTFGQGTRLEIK
Turning to B5, the Kd with recombinant human PILRB [1] turned out to be 43 nM; in the test with recombinant human PILRA [4], 1.9 nM; with recombinant human PILRA [2] it was 1.8 nM; in test [3], 0.1 nM.

B6: X10 (antibody, human IgG4, V domains shown)
VH: B1 VH
VL: B1 VL with Y30F, S32D, P33E, F98Y
As to B6, the Kd with recombinant human PILRB [1] amounted to 68 nM; with recombinant human PILRA [2] it was 3.2 nM; in test [3] it was 0.3 nM.

B7: X32 (antibody, human IgG4, V domains shown)
VH: B1 VH with N31H, G99A
VL: B1 VL with Y30F, S32D, P33V, F98Y
Turning to B7, the Kd with recombinant human PILRB [1] amounted to 2 nM; with recombinant human PILRA [2], 0.1 nM; in test [3], 0.1 nM.

B8: X27 (antibody, human IgG4, V domains shown)
VH: B1 VH with G99A
VL: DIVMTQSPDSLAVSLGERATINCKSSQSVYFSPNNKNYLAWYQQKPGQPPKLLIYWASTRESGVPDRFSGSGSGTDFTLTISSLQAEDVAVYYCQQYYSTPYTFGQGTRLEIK
Regarding B8, the equilibrium dissociation constant (Kd) worked out at 87 nM with recombinant human PILRB [1], 13 nM in the test with recombinant human PILRA [2] and 0.5 nM in test [3].

B9: X28 (antibody, human IgG4, V domains shown)
VH: B1 VH with G99A
VL: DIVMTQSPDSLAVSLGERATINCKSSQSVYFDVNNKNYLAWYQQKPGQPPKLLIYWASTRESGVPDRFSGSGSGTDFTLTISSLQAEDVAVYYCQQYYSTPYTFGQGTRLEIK
For the molecule B9, the Kd with recombinant human PILRB [1] was found to be 33 nM; with recombinant human PILRA [2], 3.8 nM; in test [3] it was 0.3 nM.

B10: X6 (antibody, human IgG4, V domains shown)
VH: B1 VH
VL: B1 VL with S32D, P33V
B10: the results for the Kd (with recombinant human PILRB [1]; with recombinant human PILRA [2]; in test [3]) were 35 nM, 3.1 nM and 0.1 nM, respectively.

B11: X24 (antibody, human IgG4, V domains shown)
VH: B1 VH with N31H
VL: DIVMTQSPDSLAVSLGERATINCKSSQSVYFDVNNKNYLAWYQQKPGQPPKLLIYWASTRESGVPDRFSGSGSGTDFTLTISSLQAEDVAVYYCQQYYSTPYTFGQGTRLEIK
On to B11, for which the figures for the Kd (with recombinant human PILRB [1]; with recombinant human PILRA [2]; in test [3]) were 16 nM, 1.7 nM and 0.2 nM, respectively.

B12: X25 (antibody, human IgG4, V domains shown)
VH: B1 VH with G99A
VL: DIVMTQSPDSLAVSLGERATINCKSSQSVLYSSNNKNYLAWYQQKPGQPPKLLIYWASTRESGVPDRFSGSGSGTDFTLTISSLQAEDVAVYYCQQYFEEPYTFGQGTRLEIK
As for B12, the figures for the Kd (with recombinant human PILRB [1]; with recombinant human PILRA [2]; in test [3]) were 211 nM, 7 nM and 0.3 nM, respectively.

B13: X22 (antibody, human IgG4, V domains shown)
VH: B1 VH with N31H
VL: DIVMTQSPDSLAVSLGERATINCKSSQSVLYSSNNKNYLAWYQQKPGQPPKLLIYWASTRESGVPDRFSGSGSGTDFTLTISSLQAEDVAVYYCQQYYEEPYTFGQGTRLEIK
Turning to B13, the Kd with recombinant human PILRB [1] was 54 nM; with recombinant human PILRA [4], 6.2 nM; with recombinant human PILRB [5], 14 nM; with recombinant human PILRA [2], 2.2 nM; in test [3], 0.2 nM.

B14: X15 (antibody, human IgG4, V domains shown)
VH: B1 VH with N31H, G99A, P107T
VL: B1 VL with Y30F, S32D, P33V
In the case of B14, the values for the Kd (in the test with recombinant human PILRB [1]; with recombinant human PILRA [2]; in test [3]) were 2 nM, 0.1 nM and 0.1 nM, respectively.

B15: X20 (antibody, human IgG4, V domains shown)
VH: B1 VH with N31H, G99A
VL: B1 VL with P33E, F98Y
notes: conditioned media in the HEK293F assays
Take B15: the “Hu Mono DR EC50” value in test [6] is roughly 0.02 µg/mL. In addition, the Kd in the test with recombinant human PILRB [1] is 2 nM; in the test with recombinant human PILRA [2] it was 0.5 nM; in test [3] it was 0.1 nM. Moreover, the “hA/hB binding ratio on HEK293F” value in test [7] worked out at 6.7.

B16: X16 (antibody, human IgG4, V domains shown)
VH: B1 VH with N31H, G99A, P107T
VL: B1 VL with S32D, P33V
notes: as for B15
Take B16: the “Hu Mono DR EC50” value in test [6] worked out at 0.005 µg/mL. For the same molecule, the Kd was found to be 2 nM with recombinant human PILRB [1], 0.5 nM in the test with recombinant human PILRA [2] and 0.1 nM in test [3]. The “hA/hB binding ratio on HEK293F” value in test [7] turned out to be 6.1.

B17: X26 (antibody, human IgG4, V domains shown)
VH: B1 VH with G99A
VL: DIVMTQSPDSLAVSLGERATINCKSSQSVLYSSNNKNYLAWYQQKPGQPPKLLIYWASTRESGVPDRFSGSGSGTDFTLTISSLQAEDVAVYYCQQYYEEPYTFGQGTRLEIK
B17: the equilibrium dissociation constant (Kd) with recombinant human PILRB [1] was 199 nM; in the test with recombinant human PILRA [2], 8.1 nM; in test [3] it was 0.3 nM.

B18: X31 (antibody, human IgG4, V domains shown)
VH: B1 VH
VL: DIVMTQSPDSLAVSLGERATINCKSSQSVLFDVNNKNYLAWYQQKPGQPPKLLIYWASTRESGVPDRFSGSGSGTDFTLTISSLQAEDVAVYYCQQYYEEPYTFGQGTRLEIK
On to B18, for which the Kd in the test with recombinant human PILRB [1] is 38 nM; with recombinant human PILRA [2], 2.2 nM; in test [3] it was 0.1 nM.

B19: X17 (antibody, human IgG4, V domains shown)
VH: B1 VH with N31H, G99A, P107T
VL: B1 VL with Y30F, S32D, P33E
For the molecule B19, the results for the Kd (with recombinant human PILRB [1]; in the test with recombinant human PILRA [2]; in test [3]) were 2 nM, 0.4 nM and 0.1 nM, respectively.

B20: X9 (antibody, human IgG4, V domains shown)
VH: B1 VH
VL: B1 VL with Y30F, S32D, P33V, F98Y
As for B20, the values for the Kd (with recombinant human PILRB [1]; in the test with recombinant human PILRA [2]; in test [3]) were 39 nM, 2.8 nM and 0.1 nM, respectively.

B21: X19 (antibody, human IgG4, V domains shown)
VH: B1 VH with N31H, G99A
VL: B1 VL with Y30F, S32D, P33E, F98Y
Take B21: the Kd with recombinant human PILRB [1] amounted to 2 nM; in the test with recombinant human PILRA [2], 0.3 nM; in test [3], 0.1 nM.

B22: X5 (antibody, human IgG4, V domains shown)
VH: B1 VH
VL: B1 VL with Y30F, S32D, P33V
Consider B22, for which the Kd with recombinant human PILRB [1] came out at 35 nM; with recombinant human PILRA [2], 2.4 nM; in test [3], 0.1 nM.
